These results are taken from article PMC12373898 (Communications Biology, 2025).

The test deals with F-actin (pre-assembled, AlexaFluor-labeled) (rabbit, UniProt P68135 1-377, AlexaFluor-labeled actin added to the polymerisation). Put plainly: TIRF microscopy in vitro reconstitution.

B1: His-GFP-Maspin-StrepII (natural protein)
chain: MDALQLANSAFAVDLFKQLCEKEPLGNVLFSPICLSTSLSLAQVGAKGDTANEIGQVLHFENVKDVPFGFQTVTSDVNKLSSFYSLKLIKRLYVDKSLNLSTEFISSTKRPYAKELETVDFKDKLEETKGQINNSIKDLTDGHFENILADNSVNDQTKILVVNAAYFVGKWMKKFSESETKECPFRVNKTDTKPVQMMNMEATFCMGNIDSINCKIIELPFQNKHLSMFILLPKDVEDESTGLEKIEKQLNSESLSQWTNPSTMANAKVKLSIPKFKVEKMIDPKACLENLGLKHIFSEDTSDFSGMSETKGVALSNVIHKVCLEITEDGGDSIEVPGARILQHKDELNADHPFIYIIRHNKTRNIIFFGKFCSP
In the case of B1, the binding result is listed as “binds”.
